This passage reports TCR tension signal, OT1 T-cells cultured in ACM relative to UCM (decrease) and TCR tension signal, OT1 T-cells cultured in SCM relative to UCM (increase) results from patent publication US20260092918A1.

This assay concerns the target H2-K (b) OVA 257-264 SIINFEKL peptide-MHC (mouse) (UniProt P01901). Kind of assay: cell-based or functional assay.
UniProt P01901, sequence (P01901 22-305 limits assumed): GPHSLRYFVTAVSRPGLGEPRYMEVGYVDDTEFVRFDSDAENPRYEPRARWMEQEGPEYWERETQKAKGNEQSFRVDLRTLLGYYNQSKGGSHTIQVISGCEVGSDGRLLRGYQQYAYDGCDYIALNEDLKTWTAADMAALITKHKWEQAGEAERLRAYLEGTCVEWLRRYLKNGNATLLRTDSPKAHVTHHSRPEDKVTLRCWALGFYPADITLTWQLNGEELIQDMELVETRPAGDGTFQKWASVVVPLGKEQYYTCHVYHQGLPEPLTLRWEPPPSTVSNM

Substance OT-1 TCR on OT-1 T-cells returned a TCR tension signal, OT1 T-cells cultured in ACM relative to UCM (decrease) of 37 % decrease and a TCR tension signal, OT1 T-cells cultured in SCM relative to UCM (increase) of 1240 % increase.
